The source of these data is US20090252729A1 (Biogen, published 2009).

The target in test [1] is T1, human LTα1β2 on phorbol myristate acetate activated II-23 cells (human, UniProt P01374 35-205; Q06643 1-244).
T1 construct: whole, on cells
T1 sequence (looked up) 1: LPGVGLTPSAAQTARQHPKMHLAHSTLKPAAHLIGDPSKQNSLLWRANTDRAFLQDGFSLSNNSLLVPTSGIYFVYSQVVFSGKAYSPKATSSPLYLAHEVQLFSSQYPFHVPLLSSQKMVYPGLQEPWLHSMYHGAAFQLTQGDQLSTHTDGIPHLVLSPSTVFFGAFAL
T1 sequence (looked up) 2: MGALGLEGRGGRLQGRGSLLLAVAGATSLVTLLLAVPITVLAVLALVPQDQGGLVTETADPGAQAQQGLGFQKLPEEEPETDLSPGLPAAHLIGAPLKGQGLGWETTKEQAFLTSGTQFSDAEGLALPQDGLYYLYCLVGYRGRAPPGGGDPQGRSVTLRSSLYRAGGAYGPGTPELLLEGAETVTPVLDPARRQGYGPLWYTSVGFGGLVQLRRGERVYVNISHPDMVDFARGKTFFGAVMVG
Briefly: FACS direct binding on PMA-activated II-23 cells, mean fluorescence (MFI). How it is done:
The binding affinity of the monomeric LTβR:scFc was also evaluated by FACS analysis (FIG. 59B). FACS was done on II-23 cells according to the methods of Eldredge et al. (Eldredge, Berkowitz et al. 2006). FACS binding assays using flow cytometry were done according to the method previously described (Force, Walter et al. 1995). Briefly, in direct binding assays human LTα1β2 was detected on phorbol myristate acetate activated II-23 cells (American Type Culture Collection (ATCC) Manassas, Va.) in FACS buffer with varied concentrations of either the LTβRIgG or biotinylated LTβRIgG (bLTβRIgG). Cells were incubated on ice for 1-2 h then washed with PBS and centrifuged. The appropriate steptavidin phycoerythrin or anti-hFc phycoerythrin labeled secondary (Molecular Probes, Eugene, Oreg.) in FACS buffer was added and incubated with the cells for an additional 1 h and washed again. The fluorescent staining of the cellular bound LTβRIgG on the II-23 cells was quantified by determining the mean channel fluorescence by FACS. Both the FACS and ELISA show the LTβRscFc has a reduced binding affinity compared with LTβRIgG.

Test [2] has as its target T2, LTα1β2 (coated on ELISA plates) (Homo sapiens (Human), UniProt P01374 35-205; Q06643 49-244, Heterotrimer of one alpha and two beta chains, as the name says.).
T2 construct: Heterotrimer of one alpha and two beta chains by its name; also called LTa1β2; copies: 1 + 1
T2 sequence (alpha): T1 sequence (looked up) 1
T2 sequence (beta): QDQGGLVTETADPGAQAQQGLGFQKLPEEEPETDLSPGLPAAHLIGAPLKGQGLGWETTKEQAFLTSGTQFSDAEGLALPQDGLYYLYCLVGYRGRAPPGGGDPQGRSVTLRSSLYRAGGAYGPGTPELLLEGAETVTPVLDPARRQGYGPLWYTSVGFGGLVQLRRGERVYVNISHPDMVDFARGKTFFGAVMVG
Briefly: ELISA on plates coated with 5 ug/ml LTα1β2, detected with anti-human HRP secondary antibody. The value is parameter C (midpoint) of the four-parameter fit y = ((A-D)/(1+(x/C)^B))+D printed under the plot. The unit is taken from the x axis. How it is done: FIG. 59A depicts the results of an ELISA evaluating the binding affinity of the monomeric LTβR:scFc to LTα1β2. ELISA plates were coated overnight at 4° C. with 5 ug/ml LTα1β2 in PBS. Plates were then blocked with 1% Casein in 10 mM PBS, pH 7.0, then washed with 10 mM PBS, pH 7.0, 0.1% Tween 20 (wash buffer) three times. LTβR:IgG or LTBβ:scFc serially diluted into 10 mM PBS, 362 mM NaCl, 0.055 Tween-20, 0.1% Casein, 5% FBS pH 7.0 (assay diluent) and incubated for 1 h, then washed with wash buffer. To each well was added Donkey anti-human heavy and light specific HRP (Jackson Labs) conjugated secondary antibody diluted 1:5000 in assay diluents for 60 min then washed with PBS. The HRP was developed using tetramethybenzidine and hydrogen peroxide in 100 mM NaAcetate pH 4.0 after several minutes, the assay was stopped by the addition of 100 uL of 1N sulfuric acid and sample absorbance read at 450 nm.

Test [3] addresses T3, human FcRIII-GST (CD16a, V158) (human, UniProt P08637 17-208, limits assumed).
T3 construct: also called human FcγRIII; FcγRIII (CD16a); not shown: GST tag
Briefly: Alphascreen assay, human FcγR CD16a. How it is done:
(§1) The ability of scFc antibodies comprising GGGGS (“1×-G4S”) or (GGGS)3 (“3×-G4S”) linkers to engage Fcγ receptors was also evaluated in an Amplified Luminescent Proximity Homogeneous Assay (Alphascreen®; Perkin Elmer). Laser excitation (680 nm) of a donor bead generates singlet oxygen which, if in close proximity to an acceptor bead, initiates a cascase of events ultimately leading to fluorescence emission at 520-620 nm. Donor and acceptor beads decorated with ligand and receptor proteins, respectively, are brought into desired proximity only when the receptor and ligand become functionally engaged.
(§2) The Alphascreen® assay was performed in a competitive format in which serial dilutions of test antibodies (WT IgG1 or scFc) were incubated with human FcRIII-GST (CD16a, V158) and anti-GST acceptor beads overnight at 4° C. in a 96-well white plate. Streptavidin donor beads and biotinylated wild-type IgG1 were also incubated overnight at 4° C. in a separate tube and then added to the assay plate the next day. After a two-hour incubation at room temperature with gentle shaking the plates were read in an Envision® plate reader (Perkin Elmer).

The target in a further test is T4, human FcγR IIb (CD32b) (human, UniProt P31994 43-217, limits assumed).
T4 sequence (looked up): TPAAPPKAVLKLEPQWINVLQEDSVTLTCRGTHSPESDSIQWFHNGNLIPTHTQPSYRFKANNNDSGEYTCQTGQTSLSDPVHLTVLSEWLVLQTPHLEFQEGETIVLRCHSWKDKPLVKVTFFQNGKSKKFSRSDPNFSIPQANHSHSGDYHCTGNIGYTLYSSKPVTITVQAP
Briefly: Alphascreen assay, human FcγR CD32b. In general terms: Alpha assays give light when donor and acceptor beads are brought close together.

The target in another test is T5, human FcγR IIa (CD32a) (human, UniProt P12318 34-217, limits assumed).
T5 sequence (looked up): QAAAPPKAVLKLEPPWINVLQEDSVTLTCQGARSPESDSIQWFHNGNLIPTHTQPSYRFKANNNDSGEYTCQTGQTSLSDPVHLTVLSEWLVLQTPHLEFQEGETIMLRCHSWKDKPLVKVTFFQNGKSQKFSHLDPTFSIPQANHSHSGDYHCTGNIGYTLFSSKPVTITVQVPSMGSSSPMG
Briefly: Alphascreen assay, human FcγR CD32a (R).

Test [4] addresses cynomolgus FcγR III (CD16a) (cynomolgus, UniProt Q8SPW2 17-208, limits assumed). Briefly: Alphascreen assay, cynomolgus FcγR CD16a.
Test [5] concerns the target T6, cynomolgus FcγR IIb (CD32b) (cynomolgus, UniProt A0A140HDP4 43-217).
T6 sequence: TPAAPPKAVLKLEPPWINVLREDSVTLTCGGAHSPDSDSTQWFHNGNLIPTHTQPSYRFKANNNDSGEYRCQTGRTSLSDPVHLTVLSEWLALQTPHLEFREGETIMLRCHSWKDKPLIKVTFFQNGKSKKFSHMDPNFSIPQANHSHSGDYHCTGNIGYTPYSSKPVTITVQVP
Nature of the test: Alphascreen assay, cynomolgus FcγR CD32b.

The target in test [6] is T7, cynomolgus FcγR IIa (CD32a) (cynomolgus, UniProt A0A140HDN0 28-215).
T7 sequence: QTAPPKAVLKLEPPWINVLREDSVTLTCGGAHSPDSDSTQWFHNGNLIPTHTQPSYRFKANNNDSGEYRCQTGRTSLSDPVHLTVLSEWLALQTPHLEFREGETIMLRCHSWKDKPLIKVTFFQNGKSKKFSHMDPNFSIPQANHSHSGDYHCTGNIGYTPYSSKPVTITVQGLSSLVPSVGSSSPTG
Briefly: Alphascreen assay, cynomolgus FcγR CD32a (R).

In test [7] the target is T3, human FcRIII-GST (CD16a, V158). Nature of the test: Alphascreen competition assay, huCD16a V158-GST on anti-GST acceptor beads; competitor: biotinylated wild-type IgG1 on streptavidin donor beads. Also noted: IC50 (read off the curve): unit not given here. How it is done: as §1, §2
For test [8] the target is unchanged. Nature of the test: Alphascreen, competitive format, competitor biotinylated wild-type IgG1. How it is done: as §1, §2
For test [9] the target is unchanged. Briefly: Alphascreen. How it is done: as §1, §2

B1: LTβR:IgG, dimeric (Fc fusion, not shown: a dimerising Fc or GST; small tags and cut ends)
chain: QAVPPYASENQTCRDQEKEYYEPQHRICCSRCPPGTYVSAKCSRIRDTVCATCAENSYNEHWNYLTICQLCRPCDPVMGLEEIAPCTSKRKTQCRCQPGMFCAAWALECTHCELLSDCPPGTEAELKDEVGKGNNHCVPCKAGHFQNTSSPSARCQPHTRCENQGLVEAAPGTAQSDTTCKNPLEPLPPEMSGTMLM
modifications: Dimeric through its Fc, which is left out. A biotinylated form (bLTβRIgG) was also used in FACS.
notes: Conventional dimeric receptor-Fc fusion used as the comparator; also called bLTβRIgG (biotinylated)
On to B1, for which the EC50 (read off the curve) (as a rule, the concentration that produces a half-maximal response) in test [1] is about 0.1 µg/mL. For the same molecule, the EC50 (in general, the concentration giving half of the maximal effect) in test [2] is 0.028 µg/mL.

B2: Hu5C8, conventional human IgG1 anti-CD40L antibody (antibody)
heavy: not shown
light: DIVLTQSPATLSVSPGERATISCRASQRVSSSTYSYMHWYQQKPGQPPKLLIKYASNLESGVPARFSGSGSGTDFTLTISSVEPEDFATYYCQHSWEIPPTFGGGTKLEIKRTVAAPSVFIFPPSDEQLKSGTASVVCLLNNFYPREAKVQWKVDNALQSGNSQESVTEQDSKDSTYSLSSTLTLSKADYEKHKVYACEVTHQGLSSPVTKSFNRGEC
modifications: N-glycan at EU N297; biotinylated (sites not given) in the CD40L ELISA
notes: Human IgG1, fully glycosylated, bivalent; Biotinylated in the CD40L ELISA; also called WT 5c8 hIgG1; WT 5C8 hIgG1
As to B2, the EC50 in test [3] was 22 nM; with human FcγR IIb (CD32b), 292 nM; in the test with human FcγR IIa (CD32a), 511 nM; in test [4], 37 nM; in test [5] it was 52 nM; in test [6] it was 359 nM. This molecule also came in with an EC50 in test [7] of 12 nM.

B3: 3×G4S-linked hemiglycosylated 5C8 scFc IgG1 antibody (pASK043) (antibody)
heavy: not shown
light: B2 light
notes: One heavy scFc chain and one light chain (monovalent); also called monovalent 3×G4S-linked hemiglycosylated scFc; hemi-glycosylated 3×-G4S linked scFc
Take B3: the EC50 in test [3] was 59 nM; in the test with human FcγR IIb (CD32b) it was 552 nM; with human FcγR IIa (CD32a) it was 949 nM; in test [4] it was 89 nM; in [5], 72 nM; in [6], 221 nM. Also, in test [7], the midpoint of the response, the EC50, lay at 77 nM. The “fold lower affinity against fully glycosylated WT human IgG1” value in test [8] is about 4 fold.

B4: 1×G4S-linked hemiglycosylated 5C8 scFc IgG1 antibody (pEAG2066) (antibody)
heavy: not shown
light: B2 light
notes: plasmid not given; also called hemi-glycosylated 1×-G4S linked scFc; 1×G4S linked scFc
B4: in test [9], the “fold weaker binding against WT IgG1” value is about 60 fold. The “fold lower affinity against fully glycosylated WT human IgG1” value in test [8] was about 57 fold. Further, in test [7], a half-maximal response (EC50) required 689 nM and the “IC50 (read off the curve)” value was about 70.

B5: 3×G4S-linked fully glycosylated 5C8 scFc IgG1 antibody (ASK048) (antibody)
heavy: not shown
light: B2 light
notes: also called fully glycosylated 3×G4S linked scFc
With B5, the EC50 in test [3] worked out at 18 nM; in the test with human FcγR IIb (CD32b), 183 nM; with human FcγR IIa (CD32a), 304 nM; in test [4], 32 nM; in test [5], 17 nM; in [6] it was 206 nM.
